Results published in the RNAGym collection of RNA variant scans (doi:10.1093/molbev/msab373).

B1: Azoarcus group I ribozyme (parent)
chain: GUGCCUUGCGCCGGGAAACCACGCAAGGGAUGGUGUCAAAUUCGGCGAAACCUAAGCGCCCGCCCGGGCGUAUGGCAACGCCGAGCCAAGCUUCGGCGCCUGCGCCGAUGAAGGUGUAGAGACUAGACGGCACCCACCUAAGGCAAACGCUAUGGUGAAGGCAUAGUCCAGGGAGUGGCGAAAGUCACACAAACCGG

Variants of: B1
Assay: reverse-splicing fitness (ratio to wild type); higher = more active; in vitro selection; Mg2+ level not given
Summary of the method: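 An in vitro group I ribozyme library with randomized positions was T7-transcribed and gel-purified. In triplicate, 10 pmol RNA in EPPS pH 7.5 was reacted with 50 pmoles of a 30-nt RNA substrate for 1 h at 37 °C across several added MgCl2 levels (1–48 mM), then stopped with EDTA. Products were reverse transcribed from a substrate-complementary primer, PCR-amplified and sequenced (HiSeq 4000). Fitness is a variant's read proportion after selection over that before, normalised to wild type.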
GUGCCUUGCGCCGGGAAACCACGCAAGGGAUGGUGUCAAAUUCGGCGAAACCUAAGCGCCCGCCCGGGCGUAUGGCAACGCUGAGCCAAGCUUCGGCGCCUGCGCCGAUGGAGGUGUAGAGACUAGACGGCACCCACCUAAGGCGAACGUUAUGGUGAAGGCAUAGUCCAGGGAGCGGCGAAAGUCACACAAACCGG [C82U A111G A145G C150U U176C] gave a reverse-splicing fitness of 0.193.
GUGCCUUGCGCCGGGAAACCACGCAAGGGAUGGUGUCAAAUUCGGCGAAACCUAAGCGCCCGCCCGGGCGUAUGGCAACGCUGAGCCAAGCUUCGGCGCCUGCGCCGAUGGAGGUGUAGAGACUAGACGGCACCCACCUAAGGCGAACGUUAUGGUGAAGGCAUAGUCCAGGGAGAGGCGAAAGUCACACAAACCGG [C82U A111G A145G C150U U176A] gave a reverse-splicing fitness of 0.135.
With GUGCCUUGCGCCGGGAAACCACGCAAGGGAUGGUGUCAAAUUCGGCGAAACCUAAGCGCCCGCCCGGGCGUAUGGCAACGCUGAGCCAAGCUUCGGCGCCUGCGCCGAUGGAGGUGUAGAGACUAGACGGCACCCACCUAAGGCGAACGUUAUGGUGAAGGCAUAGUCGAGGGAGGGGCGAAAGUCACACAAACCGG [C82U A111G A145G C150U C169G U176G] the reverse-splicing fitness was 0.00547.
In the case of GUGCCUUGCGCCGGGAAACCACGCAAGGGAUGGUGUCAAAUUCGGCGAAACCUAAGCGCCCGCCCGGGCGUAUGGCAACGCUGAGCCAAGCUUCGGCGCCUGCGCCGAUGGAGGUGUAGAGACUAGACGGCACCCACCUAAGGCGAACGUUAUGGUGAAGGCAUAGUCGAGGGAGCGGCGAAAGUCACACAAACCGG [C82U A111G A145G C150U C169G U176C], the reverse-splicing fitness is reported as 0.0174.
Variant GUGCCUUGCGCCGGGAAACCACGCAAGGGAUGGUGUCAAAUUCGGCGAAACCUAAGCGCCCGCCCGGGCGUAUGGCAACGCUGAGCCAAGCUUCGGCGCCUGCGCCGAUGGAGGUGUAGAGACUAGACGGCACCCACCUAAGGCGAACGUUAUGGUGAAGGCAUAGUCGAGGGAGAGGCGAAAGUCACACAAACCGG [C82U A111G A145G C150U C169G U176A] has a reverse-splicing fitness of 0.0169.
GUGCCUUGCGCCGGGAAACCACGCAAGGGAUGGUGUCAAAUUCGGCGAAACCUAAGCGCCCGCCCGGGCGUAUGGCAACGCUGAGCCAAGCUUCGGCGCCUGCGCCGAUGGAGGUGUAGAGACUAGACGGCACCCACCUAAGGCGAACGUUAUGGUGAAGGCAUAGUCUAGGGAGGGGCGAAAGUCACACAAACCGG [C82U A111G A145G C150U C169U U176G] gave a reverse-splicing fitness of 0.005.
GUGCCUUGCGCCGGGAAACCACGCAAGGGAUGGUGUCAAAUUCGGCGAAACCUAAGCGCCCGCCCGGGCGUAUGGCAACGCUGAGCCAAGCUUCGGCGCCUGCGCCGAUGGAGGUGUAGAGACUAGACGGCACCCACCUAAGGCGAACGUUAUGGUGAAGGCAUAGUCUAGGGAGAGGCGAAAGUCACACAAACCGG [C82U A111G A145G C150U C169U U176A] showed a reverse-splicing fitness of 0.0132.
For GUGCCUUGCGCCGGGAAACCACGCAAGGGAUGGUGUCAAAUUCGGCGAAACCUAAGCGCCCGCCCGGGCGUAUGGCAACGCUGAGCCAAGCUUCGGCGCCUGCGCCGAUGGAGGUGUAGAGACUAGACGGCACCCACCUAAGGCGAACGUUAUGGUGAAGGCAUAGUCUAGGGAGCGGCGAAAGUCACACAAACCGG [C82U A111G A145G C150U C169U U176C], the reverse-splicing fitness was 0.0132.
Variant GUGCCUUGCGCCGGGAAACCACGCAAGGGAUGGUGUCAAAUUCGGCGAAACCUAAGCGCCCGCCCGGGCGUAUGGCAACGCUGAGCCAAGCUUCGGCGCCUGCGCCGAUGGAGGUGUAGAGACUAGACGGCACCCACCUAAGGCGAACGUUAUGGUGAAGGCAUAGUCCAGGGAGUGGCGAAAGUCACACAAACCGG [C82U A111G A145G C150U] has a reverse-splicing fitness of 0.334.
Work on GUGCCUUGCGCCGGGAAACCACGCAAGGGAUGGUGUCAAAUUCGGCGAAACCUAAGCGCCCGCCCGGGCGUAUGGCAACGCUGAGCCAAGCUUCGGCGCCUGCGCCGAUGGAGGUGUAGAGACUAGACGGCACCCACCUAAGGCGAACGUUAUGGUGAAGGCAUAGUCGAGGGAGUGGCGAAAGUCACACAAACCGG [C82U A111G A145G C150U C169G] yielded a reverse-splicing fitness of 0.00979.
With GUGCCUUGCGCCGGGAAACCACGCAAGGGAUGGUGUCAAAUUCGGCGAAACCUAAGCGCCCGCCCGGGCGUAUGGCAACGCUGAGCCAAGCUUCGGCGCCUGCGCCGAUGGAGGUGUAGAGACUAGACGGCACCCACCUAAGGCGAACGUUAUGGUGAAGGCAUAGUCAAGGGAGUGGCGAAAGUCACACAAACCGG [C82U A111G A145G C150U C169A] the reverse-splicing fitness was 0.00982.
GUGCCUUGCGCCGGGAAACCACGCAAGGGAUGGUGUCAAAUUCGGCGAAACCUAAGCGCCCGCCCGGGCGUAUGGCAACGCUGAGCCAAGCUUCGGCGCCUGCGCCGAUGGAGGUGUAGAGACUAGACGGCACCCACCUAAGGCGAACGUUAUGGUGAAGGCAUAGUCUAGGGAGUGGCGAAAGUCACACAAACCGG [C82U A111G A145G C150U C169U] showed a reverse-splicing fitness of 0.0111.
Work on GUGCCUUGCGCCGGGAAACCACGCAAGGGAUGGUGUCAAAUUCGGCGAAACCUAAGCGCCCGCCCGGGCGUAUGGCAACGCUGAGCCAAGCUUCGGCGCCUGCGCCGAUGGAGGUGUAGAGACUAGACGGCACCCACCUAAGGCGAACGUUAUGGUGAAGGCAUAGUCAAGGGAGAGGCGAAAGUCACACAAACCGG [C82U A111G A145G C150U C169A U176A] yielded a reverse-splicing fitness of 0.0161.
Work on GUGCCUUGCGCCGGGAAACCACGCAAGGGAUGGUGUCAAAUUCGGCGAAACCUAAGCGCCCGCCCGGGCGUAUGGCAACGCUGAGCCAAGCUUCGGCGCCUGCGCCGAUGGAGGUGUAGAGACUAGACGGCACCCACCUAAGGCGAACGUUAUGGUGAAGGCAUAGUCAAGGGAGCGGCGAAAGUCACACAAACCGG [C82U A111G A145G C150U C169A U176C] yielded a reverse-splicing fitness of 0.0167.
Variant GUGCCUUGCGCCGGGAAACCACGCAAGGGAUGGUGUCAAAUUCGGCGAAACCUAAGCGCCCGCCCGGGCGUAUGGCAACGCUGAGCCAAGCUUCGGCGCCUGCGCCGAUGGAGGUGUAGAGACUAGACGGCACCCACCUAAGGCGAACGUUAUGGUGAAGGCAUAGUCAAGGGAGGGGCGAAAGUCACACAAACCGG [C82U A111G A145G C150U C169A U176G] has a reverse-splicing fitness of 0.00534.
